# Literature values as cited in patent US11324773B2, “Compounds, compositions and methods for inhibiting a pathogen and/or modifying mucus” (The University of North Carolina at Chapel Hill, priority 2017, dated 2022).
# Legend:
# [1] = tested on: HBE mucus; details: 30 μM, 24 h, versus controls
# [2] = tested on: expectorated sputum; details: patients with CF, 10 d, 2.5 mg twice daily
molecule,measurement,setting,value
CC(=O)N[C@@H](CS)C(=O)O [N-acetylcysteine],decrease of viscosity and elasticity of HBE mucus,[1],by an order of magnitude
"dornase alfa (protein, UniProt P24855 23-282, looked up, conventional mucolytic therapy used to treat CF) Deoxyribonuclease-1: LKIAAFNIQTFGETKMSNATLVSYIVQILSRYDIALVQEVRDSHLTAVGKLLDNLNQDAPDTYHYVVSEPLGRNSYKERYLFVYRPDQVSAVDSYYYDDGCEPCGNDTFNREPAIVRFFSRFTEVREFAIVPLHAAPGDAVAEIDALYDVYLDVQEKWGLEDVMLMGDFNAGCSYVRPSQWSSIRLWTSPTFQWLIPDSADTTATPTHCAYDRIVVAGMLLRGAVVPDSALPFNFQAAYGLSDQLAQAISDHYPVEVMLK",reduction of expectorated sputum elasticity,[2],68%
same,reduction of expectorated sputum viscosity,[2],59%
